pKd: −log10 of the molar value.

The target of the experiment is MDM2_(D. rerio) SWIB domain (zebra fish (Danio rerio)). Briefly: stopped-flow fluorescence kinetics; 10°C, 20 mM sodium phosphate pH 7.4, 150 mM NaCl, 1 mM TCEP; Trp23 emission; MDM2 constant at 0.5–2 μM, p53TAD varied 1–10 μM for k on; k off from displacement of the 1 μM:1 μM complex by 10–20 μM dansylated human p53TAD peptide; K D = k off/k on.
In turn, p53TAD_(D. rerio)^14–27 (peptide) gave a negative-log Kd (pKd) of 5.72, an off-rate constant (koff) of 31 s⁻¹ and an association rate constant (kon) of 1.59e+07 M⁻¹ s⁻¹.

Consider p53TAD_(D. rerio)^N26L (peptide), for which the pKd is 6.47, the koff came to 5.2 s⁻¹ and the kon was 1.55e+07 M⁻¹ s⁻¹.

As to p73TAD_(D. rerio) (peptide), the pKd is 6.92, the koff came out at 3.7 s⁻¹ and the on-rate constant (kon) worked out at 3.2e+07 M⁻¹ s⁻¹.

The record behind these values is article PMC10303687.
